Results as given in publication PMC6530996, “HspB1 phosphorylation regulates its intramolecular dynamics and mechanosensitive molecular chaperone interaction with filamin C” (Science Advances, 2019).
One block for each molecule: values may come before it. Non-standard residues stand in square brackets, D forms with d. No end group written: not given here. pS = N[C@@H](COP(=O)(O)O)C(=O)O

How the values were obtained:
[1] = native MS of HspB1_77–171 oligomeric state; format: physicochemical; conditions: 10 μM, 200 mM ammonium acetate pH 6.9, 10-fold molar excess DTT
From the text: To test this hypothesis, we recorded mass spectra under conditions preserving noncovalent interactions. […] The combined NMR and mass spectrometry (MS) data are therefore consistent with phosphorylation modulating an order-to-disorder transition by β2 and the PPR that leads to oligomer dissociation via rearrangement of intradimer contacts.
A pET28d(+) vector encoding human HspB1 ACD (residues 84 to 171) was transformed into Escherichia coli BL21(DE3) cells (Agilent) and expressed and purified as described previously ([29]). For crystallography, residue K171 was deleted using a site-directed mutagenesis kit (Agilent) and HspB1_84–170 was expressed and purified as described. […] Concentrations were determined by using a bicinchoninic acid assay (Thermo Pierce).
Because HspB1 can form disulfide-linked dimers, experiments involving the ACD were performed in the presence of 10-fold molar excess DTT. […] Native MS and IM-MS data were recorded on a Synapt G1 mass spectrometer (Waters) modified for the transmission of intact noncovalent protein complexes. HspB1_77–171 variants were analyzed at a concentration of 10 μM in 200 mM ammonium acetate (pH 6.9). […]

HspB1_84–170 = test: crystal structure of HspB1_84–170 with PPR peptide; format: binding, human; conditions: X-ray, 5 mM peptide, space group P12_11, 2.1 Å
From the text: We next carried out crystallographic trials, using a strategy of mixing peptide mimics of the PPR, varying in length and degree of phosphorylation, with a well-ordered ACD construct (HspB1_84–170). […] The monomers within each dimer differ at their N-terminal ends: The β2 strand of one is intramolecularly hydrogen-bonded to its own β3 strand, whereas in the other these residues are extended and stabilized by contacts with a β4-β8 groove of a neighboring dimer (Fig. 3, A and B). This groove also acts as a binding pocket for an intrasubunit interface within the C-terminal region (fig. S4B) ([29]).
Crystals were obtained following initial screens using HspB1_84–170 (18 mg ml^−1) with a fourfold molar excess of one of several peptide mimics of the N-terminal region varying in length and degree of phosphorylation. […]
Diffraction data were integrated using iMosflm and scaled and merged using Aimless in the CCP4 suite with truncation at 2.1 Å. Phases were determined by molecular replacement using Phaser with a previous HspB1 x-ray structure input as a search model (PDB 4MJH, modified by removal of flexible loops, bound C-terminal peptide, and β2 strands). […]

[2] = biological target: filamin C (FLNC) domains 18-21, 1943-2408 (UniProt Q14315); test: gas-phase collisional dissociation, tandem native MS; conditions: reference: unphosphorylated HspB1 80-88 peptide; sites S82
Sequence of filamin C (FLNC) domains 18-21, 1943-2408 (Q14315 whole entry, looked up, the tested form may be a part): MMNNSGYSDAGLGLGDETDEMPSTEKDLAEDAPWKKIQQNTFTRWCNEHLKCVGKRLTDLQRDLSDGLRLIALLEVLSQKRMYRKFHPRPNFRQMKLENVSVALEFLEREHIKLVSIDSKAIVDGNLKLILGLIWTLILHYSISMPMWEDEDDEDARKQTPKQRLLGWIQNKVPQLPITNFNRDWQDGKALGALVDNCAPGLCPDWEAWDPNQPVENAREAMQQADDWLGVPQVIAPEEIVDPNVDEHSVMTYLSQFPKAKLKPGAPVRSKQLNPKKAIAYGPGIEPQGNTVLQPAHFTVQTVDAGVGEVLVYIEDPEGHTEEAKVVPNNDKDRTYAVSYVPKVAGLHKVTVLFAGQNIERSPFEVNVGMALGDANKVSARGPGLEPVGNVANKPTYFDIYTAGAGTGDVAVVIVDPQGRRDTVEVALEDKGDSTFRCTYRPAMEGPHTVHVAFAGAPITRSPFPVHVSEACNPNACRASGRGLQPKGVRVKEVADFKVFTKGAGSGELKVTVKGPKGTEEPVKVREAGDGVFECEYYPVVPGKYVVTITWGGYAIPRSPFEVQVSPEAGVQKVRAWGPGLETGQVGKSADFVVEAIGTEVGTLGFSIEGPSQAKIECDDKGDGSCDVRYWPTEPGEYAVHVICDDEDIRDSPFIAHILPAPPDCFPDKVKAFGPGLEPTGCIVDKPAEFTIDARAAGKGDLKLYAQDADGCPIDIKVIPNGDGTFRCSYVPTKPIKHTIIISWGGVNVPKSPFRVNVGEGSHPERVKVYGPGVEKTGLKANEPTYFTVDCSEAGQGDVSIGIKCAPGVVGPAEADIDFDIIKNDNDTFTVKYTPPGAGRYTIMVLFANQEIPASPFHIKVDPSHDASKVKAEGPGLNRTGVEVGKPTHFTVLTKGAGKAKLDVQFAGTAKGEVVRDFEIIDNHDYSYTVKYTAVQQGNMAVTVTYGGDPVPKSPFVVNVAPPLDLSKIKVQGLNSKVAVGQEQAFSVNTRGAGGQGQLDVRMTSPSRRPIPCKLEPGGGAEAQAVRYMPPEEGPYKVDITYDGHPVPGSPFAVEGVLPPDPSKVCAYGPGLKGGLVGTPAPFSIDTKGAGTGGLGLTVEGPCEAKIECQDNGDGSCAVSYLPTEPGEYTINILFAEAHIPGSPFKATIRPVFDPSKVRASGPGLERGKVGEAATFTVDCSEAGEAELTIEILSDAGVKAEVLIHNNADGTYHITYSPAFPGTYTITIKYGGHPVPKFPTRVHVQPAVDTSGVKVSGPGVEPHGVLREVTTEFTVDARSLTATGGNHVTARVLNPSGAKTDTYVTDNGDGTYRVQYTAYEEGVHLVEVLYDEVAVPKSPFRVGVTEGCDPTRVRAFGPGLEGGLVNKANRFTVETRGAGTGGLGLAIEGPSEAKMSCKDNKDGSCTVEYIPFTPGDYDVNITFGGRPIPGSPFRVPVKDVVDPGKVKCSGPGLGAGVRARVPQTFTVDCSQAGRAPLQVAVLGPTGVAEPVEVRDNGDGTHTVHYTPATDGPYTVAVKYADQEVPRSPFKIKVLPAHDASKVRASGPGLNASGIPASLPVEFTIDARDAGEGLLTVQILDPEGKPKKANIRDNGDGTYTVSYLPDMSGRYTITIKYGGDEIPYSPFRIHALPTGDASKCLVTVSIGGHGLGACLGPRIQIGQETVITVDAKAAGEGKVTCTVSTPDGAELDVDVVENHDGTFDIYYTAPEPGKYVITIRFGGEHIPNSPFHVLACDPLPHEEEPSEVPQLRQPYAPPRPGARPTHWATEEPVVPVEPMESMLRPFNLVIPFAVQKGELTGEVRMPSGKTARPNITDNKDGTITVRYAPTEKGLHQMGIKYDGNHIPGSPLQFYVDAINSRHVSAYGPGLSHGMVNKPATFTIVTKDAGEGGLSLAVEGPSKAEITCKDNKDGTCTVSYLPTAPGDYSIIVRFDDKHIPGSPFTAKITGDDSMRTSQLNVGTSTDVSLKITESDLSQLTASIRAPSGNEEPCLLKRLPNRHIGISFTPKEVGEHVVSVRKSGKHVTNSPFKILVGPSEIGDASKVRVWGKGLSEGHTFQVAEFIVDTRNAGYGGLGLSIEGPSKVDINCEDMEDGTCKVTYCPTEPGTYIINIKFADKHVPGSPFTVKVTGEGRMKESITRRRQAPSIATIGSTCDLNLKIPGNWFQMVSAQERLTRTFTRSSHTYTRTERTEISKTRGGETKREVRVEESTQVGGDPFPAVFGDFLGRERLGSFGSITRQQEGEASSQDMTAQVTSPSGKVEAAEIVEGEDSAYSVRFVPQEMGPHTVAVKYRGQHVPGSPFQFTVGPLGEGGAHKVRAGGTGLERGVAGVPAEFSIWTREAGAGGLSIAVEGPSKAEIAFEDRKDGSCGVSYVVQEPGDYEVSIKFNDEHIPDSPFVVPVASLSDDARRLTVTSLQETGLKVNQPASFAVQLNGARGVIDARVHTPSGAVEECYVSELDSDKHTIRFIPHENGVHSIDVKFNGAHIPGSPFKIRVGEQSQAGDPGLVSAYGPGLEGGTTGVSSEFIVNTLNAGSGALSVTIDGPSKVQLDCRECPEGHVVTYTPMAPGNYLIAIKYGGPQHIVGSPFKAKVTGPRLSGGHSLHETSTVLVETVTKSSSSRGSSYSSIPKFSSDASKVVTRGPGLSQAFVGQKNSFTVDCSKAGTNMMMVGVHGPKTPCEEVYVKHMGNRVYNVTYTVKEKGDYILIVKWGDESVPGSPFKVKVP

[3] = biological target: T1, human FLNC domains 18 to 21 (FLNC_(d18–21)), EEF-tagged (human, UniProt Q14315 1943-2408); test: cell-based or functional assay
T1 sequence (looked up): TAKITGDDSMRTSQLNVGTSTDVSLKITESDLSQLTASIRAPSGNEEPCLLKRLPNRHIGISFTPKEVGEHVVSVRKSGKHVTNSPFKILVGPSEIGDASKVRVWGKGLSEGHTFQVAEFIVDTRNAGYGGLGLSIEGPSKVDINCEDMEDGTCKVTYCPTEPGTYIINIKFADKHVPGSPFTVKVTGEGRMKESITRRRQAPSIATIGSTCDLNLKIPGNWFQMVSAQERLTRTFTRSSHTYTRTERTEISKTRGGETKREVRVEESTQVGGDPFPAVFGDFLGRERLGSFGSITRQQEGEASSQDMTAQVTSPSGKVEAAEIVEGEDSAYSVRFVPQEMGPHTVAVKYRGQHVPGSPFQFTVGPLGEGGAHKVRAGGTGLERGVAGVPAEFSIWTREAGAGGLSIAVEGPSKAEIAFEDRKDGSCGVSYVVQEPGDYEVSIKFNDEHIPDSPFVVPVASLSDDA

[4] = biological target: T1, human FLNC domains 18 to 21 …; test: native MS; titration: FLNC_(d18–21) constant at 5 μM, peptide 5 to 160 μM, 200 mM ammonium acetate pH 6.9, acetonitrile vapor; fit with three equivalent binding sites (UniDec); conditions: both partners purified
[5] = biological target: T1, human FLNC domains 18 to 21 …; test: native MS; native IM-MS of mixtures of FLNC_(d18–21) or FLNC_(d18–21,ΔI) with HspB1_(84–171), HspB1 peptides or an excess of control peptides; 200 mM ammonium acetate pH 6.9; conditions: both partners purified
[6] = biological target: T2, FLNC_(d18–21,ΔI), FLNC domains 18 to 21 lacking the d20 insertion (human, UniProt Q14315 1943-2408, excluding 2163 to 2243); test: as above; conditions: both partners purified
T2 construct: human filamin C, residues 1943 to 2408 of UniProt Q14315 excluding 2163 to 2243; The results speak of 82 insertion residues; 2163 to 2243 are 81; source: E. coli BL21(DE3) pLysS, purified (HisTrap, SEC Superdex 200)
T2 sequence (looked up): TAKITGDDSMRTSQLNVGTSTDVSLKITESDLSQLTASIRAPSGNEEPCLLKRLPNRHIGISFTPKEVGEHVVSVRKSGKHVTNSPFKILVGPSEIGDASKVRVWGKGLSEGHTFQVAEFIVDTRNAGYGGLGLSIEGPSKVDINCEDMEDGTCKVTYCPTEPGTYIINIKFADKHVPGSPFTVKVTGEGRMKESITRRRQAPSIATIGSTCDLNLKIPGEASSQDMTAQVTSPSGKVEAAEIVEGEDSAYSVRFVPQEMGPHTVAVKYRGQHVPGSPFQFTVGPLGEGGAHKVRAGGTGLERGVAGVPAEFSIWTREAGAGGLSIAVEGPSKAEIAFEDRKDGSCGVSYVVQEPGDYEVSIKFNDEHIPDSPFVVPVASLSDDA

[7] = biological target: T3, HspB1_(84–170), ACD construct for crystallography (human, UniProt P04792 84-170); test: crystal structure; HspB1_(84–170) 16 mg/ml with 5 mM peptide in PBS pH 7.0; 22% PEG 3350, 0.02 M sodium potassium diphosphate, 0.1 M bis-tris propane pH 7.5; 2.1 Å, space group P12_(1)1; conditions: both partners purified
T3 construct: human HspB1 ACD, residues 84 to 170 (K171 deleted from the 84-171 construct); Dimer in the crystal (four dimers in the asymmetric unit); The residual Gly-Ser overhang that the methods tell of 'both proteins' may also stand on this construct; also called HspB1 ACD
T3 sequence (P04792 84-170): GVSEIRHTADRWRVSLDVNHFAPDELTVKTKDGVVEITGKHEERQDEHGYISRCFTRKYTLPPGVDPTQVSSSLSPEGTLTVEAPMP

Molecule: ^2PHspB1_77–171: Human HspB1 ACD and PPR with phosphomimic substitutions S78E and S82D
oligomeric state [1]: phosphomimicry shifts the oligomeric state toward the monomer

Molecule: HspB1_77–171: Human HspB1 ACD extended at the N-terminus to encompass the principle phosphorylation region (PPR)
oligomeric state [1]: populates a monomer-dimer equilibrium

Molecule: ALSRQL^PSSGVSEI [^P82HspB1_76–88, Peptide from human HspB1 phosphorylated at S82, captured in part in crystal structure]
binding to HspB1_84–170 in crystal (HspB1_84–170): structure of HspB1_84–170 bound to ALSRQL^PSSGVSEI

other: inflection point(s) of breakdown curve [2]: stronger; reference ≈55 and ≈110
Molecule: HspB1 (Hsp27) 80-88 (from UniProt P04792) pS82 HspB1 80-88 peptide

activation required for the transition of unfolding intermediate B to final state C of FLNC_(d18–21) with one peptide bound (coulombically steered unfolding, IM-MS) [3]: ~60 V
Kd [4]: 130 ± 17 µM
stoichiometry N [4]: ≤ 3
stoichiometry N [5]: ≤ 2
binding result [6]: binds
B1: HspB1_(80–88) peptide (peptide, UniProt P04792 80-88, looked up)
peptide: QLSSGVSEI
notes: The methods say that N termini were acetylated 'when the N-terminal residue was Glu'; this peptide begins with Gln, so whether it was acetylated is open; also called unphosphorylated peptide; source: synthetic peptide, bought: Biomatik

binding result [7]: binds
B2: ^P82HspB1_(76–88), peptide mimic of the PPR phosphorylated at Ser82 (peptide)
peptide: ALSRQL[pS]SGVSEI
notes: human HspB1 residues 76 to 88; Only 3 to 6 residues of the peptide could be built in the density; also called PPR peptide; source: synthetic peptide, bought: Biomatik
